In FireProtDB (doi:10.1016/j.csbj.2015.03.010) one finds Tm data, which are given here for 1 protein.

The conditions of the series: Aspergillus aculeatus; pH 4.5; Thermal; DSC; sodium acetate buffer 50 mM; transition: 2; reversible: no; whole UniProt chain shown.

B1: Arabinogalactan endo-beta-1,4-galactanase wild type, P48842 (protein)
chain: MFASLLLAALPLLTHAALTYRGADISSLLLLEDEGYSYKNLNGQTQALETILADAGINSIRQRVWVNPSDGSYDLDYNLELAKRVKAAGMSLYLDLHLSDTWADPSDQTTPSGWSTTDLGTLKWQLYNYTLEVCNTFAENDIDIEIISIGNEIRAGLLWPLGETSSYSNIGALLHSGAWGVKDSNLATTPKIMIHLDDGWSWDQQNYFYETVLATGELLSTDFDYFGVSYYPFYSASATLASLKTSLANLQSTYDKPVVVVETNWPVSCPNPAYAFPSDLSSIPFSVAGQQEFLEKLAAVVEATTDGLGVYYWEPAWIGNAGLGSSCADNLMVDYTTDEVYESIETLGEL
As usually defined, the Tm is the temperature at which the thermal transition is half complete. As to B1, the Tm came to 60.9 °C.
